The assay concerns the target Human TLR4/MD-2 complex (human) (UniProt O00206). In words: SPR; Biacore T200; TLR4/MD-2 amine-coupled on CM5 (1100 RU); GST-A-box, GST-B-box (150-5000 nM), A-box or GST injected at 30 μL/min for 60 s, 25 °C, dissociation 1 min; HBS-EP pH 7.4; GST-A-box: association and dissociation fitted separately to a 1:1 model; GST-B-box: steady-state affinity model; apparent KD.

Sequence of Human TLR4/MD-2 complex (human) (O00206 24-631, chain 1 of 2): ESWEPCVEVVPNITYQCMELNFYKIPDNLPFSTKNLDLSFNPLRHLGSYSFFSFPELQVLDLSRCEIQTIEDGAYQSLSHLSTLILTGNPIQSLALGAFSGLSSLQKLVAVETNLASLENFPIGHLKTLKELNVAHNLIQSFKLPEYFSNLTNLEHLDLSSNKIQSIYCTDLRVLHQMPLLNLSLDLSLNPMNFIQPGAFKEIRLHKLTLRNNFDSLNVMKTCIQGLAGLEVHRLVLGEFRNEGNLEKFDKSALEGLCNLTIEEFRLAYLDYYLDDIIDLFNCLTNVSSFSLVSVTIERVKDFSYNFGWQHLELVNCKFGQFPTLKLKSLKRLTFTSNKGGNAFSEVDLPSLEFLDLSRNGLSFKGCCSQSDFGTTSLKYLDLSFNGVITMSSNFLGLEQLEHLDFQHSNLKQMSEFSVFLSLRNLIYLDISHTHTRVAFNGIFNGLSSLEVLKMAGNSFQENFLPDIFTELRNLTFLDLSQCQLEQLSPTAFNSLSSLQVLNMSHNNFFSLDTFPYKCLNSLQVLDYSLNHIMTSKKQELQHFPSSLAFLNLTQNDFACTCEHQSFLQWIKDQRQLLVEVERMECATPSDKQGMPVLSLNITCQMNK
Sequence of Human TLR4/MD-2 complex (human) (Q9Y6Y9 19-160, chain 2 of 2, further chain): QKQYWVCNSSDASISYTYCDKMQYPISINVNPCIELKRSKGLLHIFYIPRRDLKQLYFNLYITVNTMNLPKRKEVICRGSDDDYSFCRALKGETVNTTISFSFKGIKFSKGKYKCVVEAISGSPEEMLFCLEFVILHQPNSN

With “Recombinant GST-B-box (domain or fragment)”, the Kd came to 5.78 µM.

The values are drawn from paper PMC6085627.
